Reference: the supplement of paper PMC10567573

B1: MFF (parent)
chain: YTEGISQRMRVPEKLKVAPPNADL
B2: FBXO3 (parent)
chain: DEEERRRRVFDVPIRRRRCSRLF

Variants of: B1
Experiment: protein stability index of a GFP-peptide fusion (GPS, HEK-293T) (PSI 1-6); higher = more stable
Details: c terminus: a fixed tail appended
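Also: lentivirally expressed fusions sorted by FACS into six bins by GFP to DsRed ratio, PSI derived from sequencing read proportions per bin multiplied by bin number.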

Protein stability index, by site and new letter:
P20: R 2.75; I 2.75; A 2.98; F 2.01; K 3.51; W 2.35; Y 2.04; E 3.55; G 2.91; T 2.69; M 2.66; Q 3.44; H 2.69; V 3.06; L 2.24; D 3.04; S 2.65; C 2.44; N 3.12
D23: T 2.38; H 2.95; G 2.72; N 2.65; R 2.95; Q 2.36; E 2.36; V 2.12; K 2.63; C 2.47; S 2.11; Y 2.57; I 2.29; W 2.23; A 2.34; F 2.47; M 2.51; L 2.02
P19: F 2.44; L 3.41; W 1.91; C 3.25; N 2.78; K 2.71; D 3.37; E 2.56; H 2.54; G 2.78; M 2.32; A 2.51; S 2.62; T 2.51; Y 2.33; R 2.43; Q 2.67; I 2.52; V 3.29
L24: G 2.91; W 2.14; Y 2.6; C 2.87; E 3.74; N 3.08; A 3; P 2.92; I 2.8; F 2.49; R 2.89; V 2.61; Q 3.14; T 2.95; S 2.86; M 2.91; H 3.52; D 3.88; K 3
A22: W 2.45; K 3.28; L 2.39; G 2.96; R 2.77; V 3.09; T 2.91; F 2.83; C 2.62; H 2.69; Y 2.56; N 2.92; S 2.87; I 2.45; Q 2.81; P 2.9; M 2.68; D 3.34; E 3.33
N21: K 2.99; Q 2.9; R 3.19; L 2.09; F 2.25; V 3.09; D 3.1; C 2.33; H 2.91; G 2.72; A 3.21; T 2.71; Y 2.5; S 3.24; W 2; E 2.87; M 2.67; I 2.34
A18: Y 2.59; W 2.23; Q 3.24; N 2.78; F 2.2; T 3.03; G 2.54; L 2.88; D 3.19; R 2.67; E 3.03; P 2.89; C 2.77; I 3.15; H 3.88; M 2.89; K 2.59; S 2.85; V 2.72

Variants of: B2
Experiment: as above
Details: c terminus: native

Protein stability index: each site, then its substitutions
E2: L 1.45; Q 3.19; M 1.9; I 2.52; A 1.49; W 2.25; F 1.97; D 3.08; T 1.65; S 2.21; C 1.71; N 3.05; V 1.95; K 1.36; P 2.15; H 1.79; G 2.58; R 2.33
D1: Y 2.57; L 1.97; V 2.34; W 1.8; P 2.55; H 1.87; A 2.65; N 2.05; I 2.83; Q 1.69; F 1.92; S 1.85; C 1.58; M 2.97; T 2.2; G 1.91; E 3.14; K 2.27
